Test results from patent US7087392B2, “Antiproliferative SgK reagents and methods” (The Regents of the University of California, priority 1999, dated 2006).

Experiments:
Sgk = assay: In vitro peptide kinase assay (Sgktide, [32P]ATP) of immunoprecipitated HA-Sgk; assay type: biochemical; details: mutant forms of Sgk
Description: Sgk is a component of the PI3 kinase cascade and is directly activated by PDK1 mediated phosphorylation of threonine 256 in the activation loop. […] To develop this kinase assay, lysates from human embryo kidney 293 cells transfected to express wild type hemagglutinin (HA)-tagged Sgk (HA-Sgk) were isolated and the Sgk immunoprecipitated with HA antibodies was used to screen a synthetic peptide library for identifying potential Sgk substrates. The immunoprecipitates were extensively washed, and incubated with the peptide in the presence of [^32P]ATP in kinase buffer (Park et al 1999). Sgk phosphorylated several peptides, and the best substrate for Sgk was KKRNRRLSVA (SEQ ID NO:01), which is named Sgktide. […] This substrate specificity is generally similar to, but not identical, with the substrate specificity for Akt, which is a well characterized down stream component of the PI 3 kinase pathway.
Cotransfection of PDK1 with Sgk caused a 6-fold activation of Sgk activity, whereas, the kinase-dead form of PDK1 had no effect. […] The Ser-78 in the amino terminal domain is a third phosphorylation site and expression of the S78G Sgk mutation ablates the presence of the slowest migrating form of phosphorylated Sgk in SDS polyacrylamide gels.

[1] = molecular target: T1, epithelial sodium channel (ENaC) (Xenopus laevis, UniProt P51167+P51169+P51171); assay: Epithelial sodium channel activity after co-expression in oocytes; assay type: cell-based
T1 construct: expressed in transfected cells; host or cells: Xenopus laevis oocytes (co-expression with Sgk)
T1 sequence (P51167 1-632): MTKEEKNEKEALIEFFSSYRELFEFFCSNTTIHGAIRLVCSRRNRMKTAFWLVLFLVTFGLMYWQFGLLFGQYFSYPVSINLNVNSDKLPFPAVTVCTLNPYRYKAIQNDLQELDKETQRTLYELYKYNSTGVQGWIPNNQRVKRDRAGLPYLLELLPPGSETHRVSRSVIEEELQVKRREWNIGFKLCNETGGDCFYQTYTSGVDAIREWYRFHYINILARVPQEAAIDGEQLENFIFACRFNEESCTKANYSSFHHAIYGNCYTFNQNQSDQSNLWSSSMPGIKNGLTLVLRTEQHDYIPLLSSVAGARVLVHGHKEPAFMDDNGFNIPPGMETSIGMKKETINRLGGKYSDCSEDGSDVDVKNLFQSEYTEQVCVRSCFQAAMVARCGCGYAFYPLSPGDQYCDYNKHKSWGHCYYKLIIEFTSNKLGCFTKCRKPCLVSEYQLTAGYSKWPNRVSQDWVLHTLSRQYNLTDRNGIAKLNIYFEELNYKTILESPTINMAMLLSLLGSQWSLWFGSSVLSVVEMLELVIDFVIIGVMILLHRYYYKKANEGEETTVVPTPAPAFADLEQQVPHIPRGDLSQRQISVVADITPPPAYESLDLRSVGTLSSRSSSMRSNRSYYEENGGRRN
T1 sequence (P51169 1-647): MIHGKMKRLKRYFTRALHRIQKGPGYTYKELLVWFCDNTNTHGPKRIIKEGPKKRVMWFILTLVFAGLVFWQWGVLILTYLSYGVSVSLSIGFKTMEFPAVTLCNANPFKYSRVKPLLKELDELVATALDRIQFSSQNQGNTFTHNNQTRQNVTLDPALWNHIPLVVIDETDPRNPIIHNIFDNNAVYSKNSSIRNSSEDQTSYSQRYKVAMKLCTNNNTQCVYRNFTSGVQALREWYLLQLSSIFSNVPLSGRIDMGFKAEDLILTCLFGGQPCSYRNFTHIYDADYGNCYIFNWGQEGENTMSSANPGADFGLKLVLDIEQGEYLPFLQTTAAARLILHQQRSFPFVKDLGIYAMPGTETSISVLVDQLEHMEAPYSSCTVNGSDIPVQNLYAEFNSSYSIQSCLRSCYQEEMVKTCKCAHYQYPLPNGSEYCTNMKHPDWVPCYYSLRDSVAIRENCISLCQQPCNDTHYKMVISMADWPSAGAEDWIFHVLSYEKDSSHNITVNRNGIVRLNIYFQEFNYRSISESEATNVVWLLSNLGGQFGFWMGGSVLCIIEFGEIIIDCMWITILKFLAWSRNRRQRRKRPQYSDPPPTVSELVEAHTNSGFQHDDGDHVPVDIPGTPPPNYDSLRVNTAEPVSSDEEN
T1 sequence (P51171 1-660): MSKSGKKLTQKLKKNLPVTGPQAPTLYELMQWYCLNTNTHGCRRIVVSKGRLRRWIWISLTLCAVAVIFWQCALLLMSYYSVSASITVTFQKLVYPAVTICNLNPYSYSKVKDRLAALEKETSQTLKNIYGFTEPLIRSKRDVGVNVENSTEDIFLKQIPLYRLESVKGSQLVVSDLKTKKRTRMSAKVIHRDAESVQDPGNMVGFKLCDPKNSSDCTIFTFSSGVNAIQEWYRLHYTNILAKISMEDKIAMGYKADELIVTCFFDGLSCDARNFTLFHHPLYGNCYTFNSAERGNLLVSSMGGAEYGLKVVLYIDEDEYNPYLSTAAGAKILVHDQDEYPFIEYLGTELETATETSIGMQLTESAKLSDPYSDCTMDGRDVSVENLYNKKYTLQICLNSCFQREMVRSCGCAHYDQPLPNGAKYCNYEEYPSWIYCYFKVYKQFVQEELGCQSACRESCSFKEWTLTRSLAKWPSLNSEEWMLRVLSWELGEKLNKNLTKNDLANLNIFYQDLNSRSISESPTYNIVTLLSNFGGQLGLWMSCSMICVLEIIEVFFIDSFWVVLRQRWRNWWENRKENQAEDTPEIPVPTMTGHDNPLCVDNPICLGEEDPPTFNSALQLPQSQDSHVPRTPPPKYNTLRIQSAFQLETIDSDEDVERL
Description: Identification of Sgk-interacting proteins that may connect Sgk to the cellular stress response. Using the yeast two-hybrid genetic screening strategy discussed earlier, we also identified IF-1, which is a negative regulator of the mitochondrial F1 ATPase pump, as an Sgk-interacting protein. […] Furthermore, cell lysates containing endogenous Sgk induced in response to glucocorticoids, serum, hyperosmotic stress or UV radiation interacted specifically with the GST-IF1 fusion protein but not with GST alone, as assessed by anti-sgk immunoblotting. […] We disclose that in response to genotoxic or hormonal stress cues, high levels of Sgk protein are produced, which then binds to the IF1 ATPase inhibitor, thus activating the mitochondrial F1 ATPase. We have also shown that Sgk activates the epithelial sodium channel (ENaC) after their co-expression in Xenopus Laevis oocytes. […] These observations indicate that one function of Sgk is to regulate cell volume following osmotic stress of the cells. […] Intriguingly, the cytoplasmic domains of the ENaC beta subunit contain amino acid sequences surrounding a serine that indicate it is an endogenous substrate for Sgk. Previous studies have shown that both the beta and gamma subunits of EnaC are phosphorylated (Shimkets, R. A.,et al. 1998. Proc Natl Acad Sci USA 95:3301–5).

basal ENaC activity [1]: inhibiting the basal EnaC activity
B1: K127M: Sgk with lysine 127 in the ATP binding domain substituted with methionine; kinase dead (protein, UniProt O00141 1-431, looked up, variant K127M)
Serine/threonine-protein …: MTVKTEAAKGTLTYSRMRGMVAILIAFMKQRRMGLNDFIQKIANNSYACKHPEVQSILKISQPQEPELMNANPSPPPSPSQQINLGPSSNPHAKPSDFHFLKVIGKGSFGKVLLARHKAEEVFYAVMVLQKKAILKKKEEKHIMSERNVLLKNVKHPFLVGLHFSFQTADKLYFVLDYINGGELFYHLQRERCFLEPRARFYAAEIASALGYLHSLNIVYRDLKPENILLDSQGHIVLTDFGLCKENIEHNSTTSTFCGTPEYLAPEVLHKQPYDRTVDWWCLGAVLYEMLYGLPPFYSRNTAEMYDNILNKPLQLKPNITNSARHLLEGLLQKDRTKRLGAKDDFMEIKSHVFFSLINWDDLINKKITPPFNPNVSGPNDLRHFDPEFTEEPVPNSIGKSPDSVLVTASVKEAAEAFLGFSYAPPTDSFL
kinase activity / activation of Sgk mutant (Sgk): kinase dead form of Sgk
